Consider five molecules from article PMC3159453 (Nucleic Acids Research, 2011).

Data set [1] concerns the molecule itself. Kind of data set: cross-linking.
Data set [2] concerns the molecule itself. In words: EPR.
For data set [3], the target named is LexA A29R1 (LexA29) (Escherichia coli K-12 RW118, UniProt P0A7C2 1-202, A29C). In words: EPR.
For data set [4], the target named is LexA G54R1 (LexA54) (Escherichia coli K-12 RW118, UniProt P0A7C2 1-202, G54C). In words: EPR.
Data set [5] has as its target T1, LexA repressor (wild type) (E. coli K-12 strain RW118, UniProt P0A7C2 1-202).
T1 sequence (looked up): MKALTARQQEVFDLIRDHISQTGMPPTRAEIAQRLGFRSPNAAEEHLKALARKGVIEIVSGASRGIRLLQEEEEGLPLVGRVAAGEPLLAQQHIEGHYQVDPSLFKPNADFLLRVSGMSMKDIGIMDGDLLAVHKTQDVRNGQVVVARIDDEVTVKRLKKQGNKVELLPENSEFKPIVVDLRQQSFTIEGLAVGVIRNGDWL
Kind of data set: cross-linking.

Data set [6] deals with the molecule itself. Kind of data set: cross-linking. This is another data set of the same source.

B1: LexA54 (Gly54 replaced by Cys), oxidized (natural protein, E. coli K-12 strain RW118, UniProt P0A7C2 1-202, looked up)
chain: MKALTARQQEVFDLIRDHISQTGMPPTRAEIAQRLGFRSPNAAEEHLKALARKCVIEIVSGASRGIRLLQEEEEGLPLVGRVAAGEPLLAQQHIEGHYQVDPSLFKPNADFLLRVSGMSMKDIGIMDGDLLAVHKTQDVRNGQVVVARIDDEVTVKRLKKQGNKVELLPENSEFKPIVVDLRQQSFTIEGLAVGVIRNGDWL
modifications: covalently bound at residue 54 after oxidation with 0.1 mM CuSO4 and 0.5 mM 1,10-phenantroline
With B1, in data set [1], the binding result is on record as “binds”.

B2: LexA29 spin labeled (A29R1) (natural protein, E. coli K-12 strain RW118, UniProt P0A7C2 1-202, looked up)
chain: MKALTARQQEVFDLIRDHISQTGMPPTRCEIAQRLGFRSPNAAEEHLKALARKGVIEIVSGASRGIRLLQEEEEGLPLVGRVAAGEPLLAQQHIEGHYQVDPSLFKPNADFLLRVSGMSMKDIGIMDGDLLAVHKTQDVRNGQVVVARIDDEVTVKRLKKQGNKVELLPENSEFKPIVVDLRQQSFTIEGLAVGVIRNGDWL
modifications: MTSSL nitroxide spin label (R1) on the cysteine at position 29
Consider B2, for which the binding result in data set [2] was “binds”.

B3: LexA54 spin labeled (G54R1) (natural protein, E. coli K-12 strain RW118, UniProt P0A7C2 1-202, looked up)
chain: MKALTARQQEVFDLIRDHISQTGMPPTRAEIAQRLGFRSPNAAEEHLKALARKCVIEIVSGASRGIRLLQEEEEGLPLVGRVAAGEPLLAQQHIEGHYQVDPSLFKPNADFLLRVSGMSMKDIGIMDGDLLAVHKTQDVRNGQVVVARIDDEVTVKRLKKQGNKVELLPENSEFKPIVVDLRQQSFTIEGLAVGVIRNGDWL
modifications: MTSSL nitroxide spin label (R1) on the cysteine at position 54
In the case of B3, in data set [2], the binding result is “binds”.

B4: tisB operator 24 bp (Tis_1b/Tis_2b) (dsDNA)
DNA 1: TTTACTGTATAAATAAACAGTAAT
DNA 2: ATTACTGTTTATTTATACAGTAAA
Take B4: the binding result in data set [3] and in data set [4] was “binds” throughout.

B5: LexA C-terminal fragment (CTD), product of self-cleavage (domain or fragment, E. coli K-12 strain RW118, UniProt P0A7C2 85-202, looked up)
chain: GEPLLAQQHIEGHYQVDPSLFKPNADFLLRVSGMSMKDIGIMDGDLLAVHKTQDVRNGQVVVARIDDEVTVKRLKKQGNKVELLPENSEFKPIVVDLRQQSFTIEGLAVGVIRNGDWL
B5: the binding result in data set [5] and in data set [6] was “binds” each time.
